This note sets out measurements from patent US20070218051A1, “Epitope peptides immunogenic against Streptococcus pneumoniae” (Sarvamangala J N Devi, priority 1998, published 2007).

The subject of assay [1] is S. pneumoniae type 3 strain, WU2. Put plainly: Protection experiment, Example 5: active immunization of xid mice, challenge with WU2. Type of assay: in vivo, Streptococcus pneumoniae. Particulars: CBA/CaHN/J xid mice immunized with 21 μg s.c. in CFA plus 100 μg IP boost; IV challenge 140 CFU WU2. The method, then:
Twenty CBA/CaHN/J mice carrying the xid mutation were injected according to the following protocol:
1. All mice were bled prior to immunization to establish baseline immunity. Ten test mice were immunized subcutaneously in four sites with a total of 21 μg of 37-kDa protein antigen (pneumococcal fimbrial protein A) emulsified in Complete Freund's adjuvant (CFA). Ten control mice were immunized identically with CFA and buffer substituting for the antigen.
2. Fourteen days later, the mice were boosted intraperitoneally (IP) with 100 μg of the 37-kDa protein antigen (test mice) or with buffer (controls). No adjuvant was used with this booster immunization.
3. Eight days later, all mice were bled via the infraorbital sinus and the were collected and pooled into the two groups (immunized and controls). At the same time, blood was collected from individual mice to assay for antibody responses.
6. At the same time, the eighteen (8 test and 10 control) mice were challenged I.V with the same culture of WU2.
7. Deaths were tallied daily.

The test system of assay [2] is virulent capsular type 3 Streptococcus pneumoniae strain, WU2. Put plainly: Protection experiment, Example 4: active immunization of xid mice, challenge with WU2. Type of assay: in vivo. Particulars: CBA/CaHN/J xid mice; about 22 μg s.c. in CFA, 100 μg IP 14 days later; IV challenge 60 CFU WU2; observed 21 days. The method, then: CBA/CaHN/J Mice. X-linked immune deficiency (xid) CBA/N mice as described by Wicker et al., Curr. Top. Microbiol, Immunol. 124:86-[0] were used to study the protection afforded by the 37-kDa protein.
Twenty CBA/CaHN/J mice carrying the xid mutation […] immunodeficiency) were used in this protection study. They were tested for protection against challenge with a virulent capsulan type 3 Streptococcus pneumoniae strain, WU2. Mice were anesthetized with Ketamine/Rompum and bled infraorbitally to obtain pre-immunization sera. 37-kDa protein (pneumococcal surface adhesin A) was emulsified in complete Freund's adjuvant (CFA) to a protein concentration of 54 μg per ml. Ten mice were injected subcutaneously into 2 axillary and 2 inguinal sites at 0.1 ml per site, delivering approximately 22 μg protein/mouse. Ten control mice were treated identically with CFA and buffer substituting for protein. Fourteen days later, the ten test mice were injected intraperitoneally (IP) with 100 μg of the 37-kDa protein; controls were injected IP with buffer. Eight days following the IP immunizations, all mice were bled infraorbitally to obtain post-immunization sera, and challenged intravenously (IV) with 60 CFU of a log phase culture of S. pneumoniae strain WU2. […]

B1: 37-kDa protein: 37-kDa species-common S. pneumoniae protein, pneumococcal surface adhesin A (PsaA), used as immunogen (protein)
chain: CASGKKDTTSGQKLKVVATNSIIADITKNIAGDKIDLHSIVPIGQDPHEYEPLPEDVKKTSEADLIFYNGINLETGGNAWFTKLVENAKKTENKDYFAVSDGVDVIYLEGQNEKGKEDPHAWLNLENGIIFAKNIAKQLSAKDPNNKEFYEKNLKEYTDKLDKLDKESKDKFNKIPAEKKLIVTSEGAFKYFSKAYGVPSAYIWEINTEEEGTPEQIKTLVEKLRQTKVPSLFVESSVDDRPMKTVSQDTNIPIYAQIFTDSIAEQGKEGDSYYSMMKYNLDKIAEGLAK
With B1, the “No. Dead/Total No. Challenged” value in assay [1] is given as 0/8. The “survived (mice surviving/total)” value in assay [2] was 10/10.
